Assay results: paper PMC12637021, “Talin–tensin3 interactions regulate fibrillar adhesion formation and tensin3 phase separation” (The Journal of Cell Biology, 2025)

Experiments:
[1] = test system: U2OS TNS3KO cells; assay: α5 integrin-positive FBs, rescue of TNS3KO cells; assay type: cell-based, human; settings: vs mCh-TNS3-WT; FN-coated, overnight; SNAKA51 antibody; n = 37 (WT) and 47 (L702E) cells
Procedure: (§1) Cells were fixed in 4% paraformaldehyde (PFA, Sigma-Aldrich), which had been prewarmed to 37°C for 15 min before being washed three times with PBS. For immunofluorescence staining, cells were permeabilized with 0.5% Triton X-100 (Sigma-Aldrich) at room temperature for 5 min before being washed three times with PBS. Blebbistatin (Tocris Bioscience) was diluted in dimethyl sulfoxide (Sigma-Aldrich) and used at a final concentration of 50 μM. […]
(§2) Analysis of cell adhesion sites, FN fibrils, and LLPS condensates was performed using FIJI/ImageJ (version 1.54f) software ([Schindelin et al., 2012]). […] Prior to adhesion quantification, the images were background-subtracted using a rolling ball algorithm, followed by thresholding of adhesion sites and Analyse Particles functions in FIJI/ImageJ to quantify adhesions. Adhesion sites with sizes between 0.4 and 10 μm^2 were counted, except for adhesions in blebbistatin-treated cells, which were counted with sizes between 0.2 and 4 μm^2. […]

[2] = test system: U2OS TNS3KO cells; assay: vinculin-positive FAs on VN; assay type: cell-based, human; settings: TNS3-WT vs TNS3-L702E; VN-coated, serum-free; n = 74 (WT) and 51 (L702E) cells
Procedure: as §1, §2

[3] = test system: NIH3T3 cells; assay: FRAP of GFP-TNS3 in adhesions; assay type: cell-based, mouse; settings: vs TNS3-WT; 37°C; n = 27 (WT) and 26 (L702E) adhesions
Procedure: Transfected NIH3T3 cells were incubated in prewarmed DMEM medium at 37°C for 1 h to equilibrate prior to imaging. FRAP experiments were performed using a spinning disk confocal microscope as described above. Slidebook software (version 6.0.3, 3I) was used to set up the experiment. Regions of interest (ROIs) were manually adjusted to the shape of adhesion. A 488-nm laser was used at 100% power to bleach one to three adhesion ROIs per cell. Three prebleach images were acquired, followed by one image every 10 s for 3 min after bleach. Time-lapse images were analyzed using FIJI/ImageJ software ([Schindelin et al., 2012]) to obtain the intensity values of three control unbleached control ROIs and bleached ROIs over time. Values were background-subtracted, and measurements were corrected with the control values of the unbleached ROIs to compensate for any overall fluorescence loss. Intensity values were then normalized to the first postbleach value; normalized data were fitted to a one-phase association model Y=Y0+(Plateau-Y0)*(1-exp(-K*x)) using GraphPad Prism 10 software. Coefficients of the curve fit were extracted and transformed to generate the mobile fraction and halftime of recovery.

[4] = test system: NIH3T3 cells; assay: client protein recruitment to tensin3 condensates; assay type: cell-based, mouse; settings: TNS3-L702E condensates
Text: Since the observed tensin3 condensates were derived from adhesion sites in a talin-regulated mechanosensitive manner, we wondered whether these condensates contain other adhesion components or signaling molecules. To address this question, we examined a selection of cell–matrix adhesion proteins that have been reported by others to be present in LLPS condensates. These proteins include LIMD1 ([Wang et al., 2021]), kindlin2 ([Hsu et al., 2023]), talin ([Hsu et al., 2023]; [Litschel et al., 2024]), KANK ([Guo et al., 2023]), tensin1 ([Lee et al., 2023]), vinculin ([Litschel et al., 2024]), and GIT1 ([Zhu et al., 2020]). We added the actin regulatory RhoGAP DLC1 to this selection, as it is known to bind tensin ([Liao et al., 2006]; [Shih et al., 2015]), and the RNA regulatory protein GIGYF1, which we had previously identified alongside many of the aforementioned proteins in tensin BioID datasets ([Atherton et al., 2022]). We also added stress granule components G3BP1 ([Tourrière et al., […]]) and TDP-43 ([Colombrita et al., 2009]). These proteins were either co-expressed as fluorescently tagged proteins (Fig. S4 I) or, where antibodies were available, probed endogenously in cells that formed GFP-TNS3 condensates (Fig. 8 A).
Cells were fixed in 4% paraformaldehyde (PFA, Sigma-Aldrich), which had been prewarmed to 37°C for 15 min before being washed three times with PBS. For immunofluorescence staining, cells were permeabilized with 0.5% Triton X-100 (Sigma-Aldrich) at room temperature for 5 min before being washed three times with PBS. Blebbistatin (Tocris Bioscience) was diluted in dimethyl sulfoxide (Sigma-Aldrich) and used at a final concentration of 50 μM. The following primary antibodies were diluted in 1% bovine serum albumin (BSA, Sigma-Aldrich): mouse anti-α5 integrin (SNAKA51, 1:100, NBP2-50146; Novus Biologicals), rat anti-β1 integrin (9EG7, 1:200; 553715; BD Biosciences), mouse anti-FN (IST-9, 1:100, ab6328; Abcam), rabbit anti-tensin3 (1:200, HPA055338; Atlas), mouse anti-EEA1 (1:500, 68065-1-IG; Proteintech), mouse anti-LAMP1 (1:200, ab320851; Abcam), mouse anti-paxillin (349, 1:400, mab3060; Sigma-Aldrich), rabbit anti-talin1 (1:200, 82856-4-RR; Proteintech), mouse anti-vinculin (hVin1, 1:500, V9264; Sigma-Aldrich), rabbit anti-KANK2 (1:100, HPA015643; Sigma-Aldrich), rabbit anti-kindlin2 (1:100, 11453-1-AP; Proteintech), rabbit anti-GIT1 (1:200, 26247-1-AP; Proteintech), mouse anti-phosphotyrosine (4G10, 1:200, 05-321X; Sigma-Aldrich), rabbit anti-G3BP1 (1:600, 13057-2-AP; Proteintech), rabbit anti-TDP43 (1:400, 10782-2-AP; Proteintech), and rabbit anti-GIGYF1 (1:400, ab121784; Abcam). […]

B1: TNS3-L702E: tensin3 carrying the L702E point mutation that blocks the interaction with talin (protein, UniProt Q68CZ2 1-1445, looked up, variant L702E)
Tensin-3: MEEGHGLDLTYITERIIAVSFPAGCSEESYLHNLQEVTRMLKSKHGDNYLVLNLSEKRYDLTKLNPKIMDVGWPELHAPPLDKMCTICKAQESWLNSNLQHVVVIHCRGGKGRIGVVISSYMHFTNVSASADQALDRFAMKKFYDDKVSALMQPSQKRYVQFLSGLLSGSVKMNASPLFLHFVILHGTPNFDTGGVCRPFLKLYQAMQPVYTSGIYNVGPENPSRICIVIEPAQLLKGDVMVKCYHKKYRSATRDVIFRLQFHTGAVQGYGLVFGKEDLDNASKDDRFPDYGKVELVFSATPEKIQGSEHLYNDHGVIVDYNTTDPLIRWDSYENLSADGEVLHTQGPVDGSLYAKVRKKSSSDPGIPGGPQAIPATNSPDHSDHTLSVSSDSGHSTASARTDKTEERLAPGTRRGLSAQEKAELDQLLSGFGLEDPGSSLKEMTDARSKYSGTRHVVPAQVHVNGDAALKDRETDILDDEMPHHDLHSVDSLGTLSSSEGPQSAHLGPFTCHKSSQNSLLSDGFGSNVGEDPQGTLVPDLGLGMDGPYERERTFGSREPKQPQPLLRKPSVSAQMQAYGQSSYSTQTWVRQQQMVVAHQYSFAPDGEARLVSRCPADNPGLVQAQPRVPLTPTRGTSSRVAVQRGVGSGPHPPDTQQPSPSKAFKPRFPGDQVVNGAGPELSTGPSPGSPTLDIDQSIEQENRLILELDPTFEPIPTHMNALGSQANGSVSPDSVGGGLRASSRLPDTGEGPSRATGRQGSSAEQPLGGRLRKLSLGQYDNDAGGQLPFSKCAWGKAGVDYAPNLPPFPSPADVKETMTPGYPQDLDIIDGRILSSKESMCSTPAFPVSPETPYVKTALRHPPFSPPEPPLSSPASQHKGGREPRSCPETLTHAVGMSESPIGPKSTMLRADASSTPSFQQAFASSCTISSNGPGQRRESSSSAERQWVESSPKPMVSLLGSGRPTGSPLSAEFSGTRKDSPVLSCFPPSELQAPFHSHELSLAEPPDSLAPPSSQAFLGFGTAPVGSGLPPEEDLGALLANSHGASPTPSIPLTATGAADNGFLSHNFLTVAPGHSSHHSPGLQGQGVTLPGQPPLPEKKRASEGDRSLGSVSPSSSGFSSPHSGSTISIPFPNVLPDFSKASEAASPLPDSPGDKLVIVKFVQDTSKFWYKADISREQAIAMLKDKEPGSFIVRDSHSFRGAYGLAMKVATPPPSVLQLNKKAGDLANELVRHFLIECTPKGVRLKGCSNEPYFGSLTALVCQHSITPLALPCKLLIPERDPLEEIAESSPQTAANSAAELLKQGAACNVWYLNSVEMESLTGHQAIQKALSITLVQEPPPVSTVVHFKVSAQGITLTDNQRKLFFRRHYPVNSVIFCALDPQDRKWIKDGPSSKVFGFVARKQGSATDNVCHLFAEHDPEQPASAIVNFVSKVMIGSPKKV
modifications: mCherry or GFP tag
reduction in centrally located α5 integrin-positive FBs [1]: 55% | formation of vinculin-positive FA [2]: no difference | halftime of recovery (FRAP) [3]: significantly higher | mobile fraction (FRAP) [3]: significantly higher | localization of talin1/2, KANK1/2 and vinculin into condensates [4]: failed to localize into the tensin3 condensates | presence of tensin1, LIMD1, DLC1, and GIGYF1 in condensates [4]: remained present
